# From patent publication US20230002496A1 (STAIDSON BEIJING BIOPHARMACEUTICALS, published 2023)
# T1: human GM-CSFRα, full length on cells (human, UniProt P15509 23-400)
# T1 sequence: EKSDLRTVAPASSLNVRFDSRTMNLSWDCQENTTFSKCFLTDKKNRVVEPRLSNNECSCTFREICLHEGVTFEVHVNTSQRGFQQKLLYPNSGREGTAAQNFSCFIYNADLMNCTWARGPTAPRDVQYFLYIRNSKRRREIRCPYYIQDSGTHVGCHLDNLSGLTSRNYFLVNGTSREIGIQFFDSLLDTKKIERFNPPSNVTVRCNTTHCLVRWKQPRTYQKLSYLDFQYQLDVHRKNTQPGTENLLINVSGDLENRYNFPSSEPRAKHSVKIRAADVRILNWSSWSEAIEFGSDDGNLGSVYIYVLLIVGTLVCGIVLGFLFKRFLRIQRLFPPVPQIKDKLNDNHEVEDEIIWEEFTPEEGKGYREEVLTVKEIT
# Molecular target: T1, human GM-CSFRα, full length on cells
# Experiment: cell-based or functional assay
row,Binder,"IC50, TF-1 cell proliferation"
1,"E35-scFv LG50T (scFv, V domains shown) VH: QMQLVQSGAEVKKPGASVKVSCKVSGYTLTELSIHWVRQAPGKGLEWMGGFDPEDGETIYAQKFQGRVTMTGDTSTDTAYLELSSLRSEDTALYYCATGRYTSLATTYGFDYWGQGTLVTVSS VL: EIVMTQSPATLSLSPGERATLSCRASQSVSSYLAWYQQKPGQAPRLLIYTASSRATGIPDRFSGSGSGTDFTLTISRLEPEDFAVYYCQQYDNWPYTFGQGTKLEIK",0.25 µg/mL
2,"E35-scFv LG50Q (scFv, V domains shown) VH: QMQLVQSGAEVKKPGASVKVSCKVSGYTLTELSIHWVRQAPGKGLEWMGGFDPEDGETIYAQKFQGRVTMTGDTSTDTAYLELSSLRSEDTALYYCATGRYTSLATTYGFDYWGQGTLVTVSS VL: EIVMTQSPATLSLSPGERATLSCRASQSVSSYLAWYQQKPGQAPRLLIYQASSRATGIPDRFSGSGSGTDFTLTISRLEPEDFAVYYCQQYDNWPYTFGQGTKLEIK",0.93 µg/mL
3,"E35-scFv LG50S (scFv, V domains shown) VH: QMQLVQSGAEVKKPGASVKVSCKVSGYTLTELSIHWVRQAPGKGLEWMGGFDPEDGETIYAQKFQGRVTMTGDTSTDTAYLELSSLRSEDTALYYCATGRYTSLATTYGFDYWGQGTLVTVSS VL: EIVMTQSPATLSLSPGERATLSCRASQSVSSYLAWYQQKPGQAPRLLIYSASSRATGIPDRFSGSGSGTDFTLTISRLEPEDFAVYYCQQYDNWPYTFGQGTKLEIK",1.3 µg/mL
4,"E35-scFv LG50N (scFv, V domains shown) VH: QMQLVQSGAEVKKPGASVKVSCKVSGYTLTELSIHWVRQAPGKGLEWMGGFDPEDGETIYAQKFQGRVTMTGDTSTDTAYLELSSLRSEDTALYYCATGRYTSLATTYGFDYWGQGTLVTVSS VL: EIVMTQSPATLSLSPGERATLSCRASQSVSSYLAWYQQKPGQAPRLLIYNASSRATGIPDRFSGSGSGTDFTLTISRLEPEDFAVYYCQQYDNWPYTFGQGTKLEIK",1.59 µg/mL
5,"E35-scFv LG50A (scFv, V domains shown) VH: QMQLVQSGAEVKKPGASVKVSCKVSGYTLTELSIHWVRQAPGKGLEWMGGFDPEDGETIYAQKFQGRVTMTGDTSTDTAYLELSSLRSEDTALYYCATGRYTSLATTYGFDYWGQGTLVTVSS VL: EIVMTQSPATLSLSPGERATLSCRASQSVSSYLAWYQQKPGQAPRLLIYAASSRATGIPDRFSGSGSGTDFTLTISRLEPEDFAVYYCQQYDNWPYTFGQGTKLEIK",0.5 µg/mL
6,"E35-scFv LD92V (scFv, V domains shown) VH: QMQLVQSGAEVKKPGASVKVSCKVSGYTLTELSIHWVRQAPGKGLEWMGGFDPEDGETIYAQKFQGRVTMTGDTSTDTAYLELSSLRSEDTALYYCATGRYTSLATTYGFDYWGQGTLVTVSS VL: EIVMTQSPATLSLSPGERATLSCRASQSVSSYLAWYQQKPGQAPRLLIYGASSRATGIPDRFSGSGSGTDFTLTISRLEPEDFAVYYCQQYVNWPYTFGQGTKLEIK",0.387 µg/mL
7,"E35-scFv LG50D (scFv, V domains shown) VH: QMQLVQSGAEVKKPGASVKVSCKVSGYTLTELSIHWVRQAPGKGLEWMGGFDPEDGETIYAQKFQGRVTMTGDTSTDTAYLELSSLRSEDTALYYCATGRYTSLATTYGFDYWGQGTLVTVSS VL: EIVMTQSPATLSLSPGERATLSCRASQSVSSYLAWYQQKPGQAPRLLIYDASSRATGIPDRFSGSGSGTDFTLTISRLEPEDFAVYYCQQYDNWPYTFGQGTKLEIK",0.88 µg/mL
8,"E35-scFv LG50L (scFv, V domains shown) VH: QMQLVQSGAEVKKPGASVKVSCKVSGYTLTELSIHWVRQAPGKGLEWMGGFDPEDGETIYAQKFQGRVTMTGDTSTDTAYLELSSLRSEDTALYYCATGRYTSLATTYGFDYWGQGTLVTVSS VL: EIVMTQSPATLSLSPGERATLSCRASQSVSSYLAWYQQKPGQAPRLLIYLASSRATGIPDRFSGSGSGTDFTLTISRLEPEDFAVYYCQQYDNWPYTFGQGTKLEIK",3.9 µg/mL
9,"E35-scFv LG50P (scFv, V domains shown) VH: QMQLVQSGAEVKKPGASVKVSCKVSGYTLTELSIHWVRQAPGKGLEWMGGFDPEDGETIYAQKFQGRVTMTGDTSTDTAYLELSSLRSEDTALYYCATGRYTSLATTYGFDYWGQGTLVTVSS VL: EIVMTQSPATLSLSPGERATLSCRASQSVSSYLAWYQQKPGQAPRLLIYPASSRATGIPDRFSGSGSGTDFTLTISRLEPEDFAVYYCQQYDNWPYTFGQGTKLEIK",1.86 µg/mL
10,"E35-scFv LG50R (scFv, V domains shown) VH: QMQLVQSGAEVKKPGASVKVSCKVSGYTLTELSIHWVRQAPGKGLEWMGGFDPEDGETIYAQKFQGRVTMTGDTSTDTAYLELSSLRSEDTALYYCATGRYTSLATTYGFDYWGQGTLVTVSS VL: EIVMTQSPATLSLSPGERATLSCRASQSVSSYLAWYQQKPGQAPRLLIYRASSRATGIPDRFSGSGSGTDFTLTISRLEPEDFAVYYCQQYDNWPYTFGQGTKLEIK",2.79 µg/mL
11,"E35-scFv LD92A (scFv, V domains shown) VH: QMQLVQSGAEVKKPGASVKVSCKVSGYTLTELSIHWVRQAPGKGLEWMGGFDPEDGETIYAQKFQGRVTMTGDTSTDTAYLELSSLRSEDTALYYCATGRYTSLATTYGFDYWGQGTLVTVSS VL: EIVMTQSPATLSLSPGERATLSCRASQSVSSYLAWYQQKPGQAPRLLIYGASSRATGIPDRFSGSGSGTDFTLTISRLEPEDFAVYYCQQYANWPYTFGQGTKLEIK",0.282 µg/mL
12,"E35-scFv LG50H (scFv, V domains shown) VH: QMQLVQSGAEVKKPGASVKVSCKVSGYTLTELSIHWVRQAPGKGLEWMGGFDPEDGETIYAQKFQGRVTMTGDTSTDTAYLELSSLRSEDTALYYCATGRYTSLATTYGFDYWGQGTLVTVSS VL: EIVMTQSPATLSLSPGERATLSCRASQSVSSYLAWYQQKPGQAPRLLIYHASSRATGIPDRFSGSGSGTDFTLTISRLEPEDFAVYYCQQYDNWPYTFGQGTKLEIK",4.29 µg/mL
13,"E35-scFv LD92L (scFv, V domains shown) VH: QMQLVQSGAEVKKPGASVKVSCKVSGYTLTELSIHWVRQAPGKGLEWMGGFDPEDGETIYAQKFQGRVTMTGDTSTDTAYLELSSLRSEDTALYYCATGRYTSLATTYGFDYWGQGTLVTVSS VL: EIVMTQSPATLSLSPGERATLSCRASQSVSSYLAWYQQKPGQAPRLLIYGASSRATGIPDRFSGSGSGTDFTLTISRLEPEDFAVYYCQQYLNWPYTFGQGTKLEIK",0.42 µg/mL
14,"E35-scFv LG50Y (scFv, V domains shown) VH: QMQLVQSGAEVKKPGASVKVSCKVSGYTLTELSIHWVRQAPGKGLEWMGGFDPEDGETIYAQKFQGRVTMTGDTSTDTAYLELSSLRSEDTALYYCATGRYTSLATTYGFDYWGQGTLVTVSS VL: EIVMTQSPATLSLSPGERATLSCRASQSVSSYLAWYQQKPGQAPRLLIYYASSRATGIPDRFSGSGSGTDFTLTISRLEPEDFAVYYCQQYDNWPYTFGQGTKLEIK",32 µg/mL
15,"E35-scFv LG50I (scFv, V domains shown) VH: QMQLVQSGAEVKKPGASVKVSCKVSGYTLTELSIHWVRQAPGKGLEWMGGFDPEDGETIYAQKFQGRVTMTGDTSTDTAYLELSSLRSEDTALYYCATGRYTSLATTYGFDYWGQGTLVTVSS VL: EIVMTQSPATLSLSPGERATLSCRASQSVSSYLAWYQQKPGQAPRLLIYIASSRATGIPDRFSGSGSGTDFTLTISRLEPEDFAVYYCQQYDNWPYTFGQGTKLEIK",1.08 µg/mL
16,"E35-scFv LD92W (scFv, V domains shown) VH: QMQLVQSGAEVKKPGASVKVSCKVSGYTLTELSIHWVRQAPGKGLEWMGGFDPEDGETIYAQKFQGRVTMTGDTSTDTAYLELSSLRSEDTALYYCATGRYTSLATTYGFDYWGQGTLVTVSS VL: EIVMTQSPATLSLSPGERATLSCRASQSVSSYLAWYQQKPGQAPRLLIYGASSRATGIPDRFSGSGSGTDFTLTISRLEPEDFAVYYCQQYWNWPYTFGQGTKLEIK",0.342 µg/mL
17,"E35-scFv LG50E (scFv, V domains shown) VH: QMQLVQSGAEVKKPGASVKVSCKVSGYTLTELSIHWVRQAPGKGLEWMGGFDPEDGETIYAQKFQGRVTMTGDTSTDTAYLELSSLRSEDTALYYCATGRYTSLATTYGFDYWGQGTLVTVSS VL: EIVMTQSPATLSLSPGERATLSCRASQSVSSYLAWYQQKPGQAPRLLIYEASSRATGIPDRFSGSGSGTDFTLTISRLEPEDFAVYYCQQYDNWPYTFGQGTKLEIK",29.9 µg/mL
18,"E35-scFv LG50C (scFv, V domains shown) VH: QMQLVQSGAEVKKPGASVKVSCKVSGYTLTELSIHWVRQAPGKGLEWMGGFDPEDGETIYAQKFQGRVTMTGDTSTDTAYLELSSLRSEDTALYYCATGRYTSLATTYGFDYWGQGTLVTVSS VL: EIVMTQSPATLSLSPGERATLSCRASQSVSSYLAWYQQKPGQAPRLLIYCASSRATGIPDRFSGSGSGTDFTLTISRLEPEDFAVYYCQQYDNWPYTFGQGTKLEIK",25.7 µg/mL
19,"E35-scFv LD92Q (scFv, V domains shown) VH: QMQLVQSGAEVKKPGASVKVSCKVSGYTLTELSIHWVRQAPGKGLEWMGGFDPEDGETIYAQKFQGRVTMTGDTSTDTAYLELSSLRSEDTALYYCATGRYTSLATTYGFDYWGQGTLVTVSS VL: EIVMTQSPATLSLSPGERATLSCRASQSVSSYLAWYQQKPGQAPRLLIYGASSRATGIPDRFSGSGSGTDFTLTISRLEPEDFAVYYCQQYQNWPYTFGQGTKLEIK",0.328 µg/mL
20,"E35-scFv LG50V (scFv, V domains shown) VH: QMQLVQSGAEVKKPGASVKVSCKVSGYTLTELSIHWVRQAPGKGLEWMGGFDPEDGETIYAQKFQGRVTMTGDTSTDTAYLELSSLRSEDTALYYCATGRYTSLATTYGFDYWGQGTLVTVSS VL: EIVMTQSPATLSLSPGERATLSCRASQSVSSYLAWYQQKPGQAPRLLIYVASSRATGIPDRFSGSGSGTDFTLTISRLEPEDFAVYYCQQYDNWPYTFGQGTKLEIK",1.4 µg/mL
